This note sets out measurements from patent US11098306B1, “Promoters and uses thereof” (priority 2018, dated 2021).

In the data set the test system is mCherry expression in E. coli. Kind of data set: Bulk mCherry fluorescence of E. coli strains (plate reader, normalized to OD600) after induction with phenolics. To be noted: for improvement of expression levels in comparison with PemrR: 5 mM vanillic acid; for improvement of expression levels in comparison with PemrR / improved gene expression in comparison with PemrR / fold change in comparison with PemrR: 24 h of induction; for increase in fluorescence / protein expression in comparison with native promoter PemrR (control strain RIF01): induced with 5 mM vanillin, 12 h after induction, 30° C.; for improved gene expression in comparison with PemrR: 1 mM coumaric acid; for fold change in comparison with PemrR: 5 mM coumaric acid. Format: cell-based. The protocol:
Cell growth and bulk fluorescence measurements: For the fluorescence experiments, frozen stocks of the strains were used to inoculate 5 ml of LB medium containing 25 mg l^−1 chloramphenicol and incubated at 37° C. with an orbital shaking of 250 r.p.m. Overnight cultures were used to inoculate (0.1% volume/volume) an M9 salt medium containing 25 mg l^−1 chloramphenicol, 20 g l^−1 glucose, and 5 g l^−1 yeast extract. The M9 salt medium (Sigma-Aldrich) contains 6.78 g l^−1 Na2HPO4, 3 g l^−1 KH2PO4, 0.5 g l^−1 NaCl, 1 g l^−1 NH4Cl, 0.1 mM CaCl2), and 2 mM MgSO4. 200 μl cultures of each strain (in triplicates) were loaded into black 96-well plates (black polystyrene plates with flat pclear bottom from Greiner Bio-One) and covered with Breathe-Easier sealing membrane (Sigma).
The cultures were grown until mid-log phase at 37° C. and 250 rpm. The mid-log phase cells were induced with phenolics such as vanillin, coumaric acid, and vanillic acid at varying concentrations. The induced cells were incubated in a plate reader (Tecan Infinite 200 Pro) at 30° C. and a 3 mm shaking amplitude. The optical density of the cultures and the mCherry fluorescence was monitored at required intervals in the plate reader. Cell density was measured by monitoring the absorption of the cultures at 600 nm (OD600). Fluorescence was recorded using an excitation wavelength of 575±9 nm and an emission wavelength of 610±20 nm with a manual gain of 100 and a Z-position of 20,000 μm. Fluorescence readings are reported as normalized fluorescence given by the ratio of fluorescence of the cells to the OD600. The fold changes were reported as the ratio of fluorescence level of the strain with engineered promoter to the strain with the basal promoter.

For the molecule `COc1cc(C(=O)O)ccc1O` [Vanillic acid, vanillic acid, reference compound], the “induction of the promoters (PemrR, Pvtac, Pvtrc, Pvtic) by the phenolic” value (strains RIF01-RIF04, effect emerged after 24 h) was “some level of induction”.

B1: Pvtic: engineered hybrid phenolic-inducible promoter, PemrR with spacer region of Ptic, SEQ ID NO:55 (nucleic acid)
DNA: GAATCATTTTTCTAAAACAATACATTTGACAATTAATCATCGCGGCTCGTATAATGATCGGCTGAAATTAATGAGGTCATACCCAAAT
modifications: expressed or natural sequence
With B1, the “improvement of expression levels in comparison with PemrR” value (shortened to “improvement of expression levels”) was found to be 2.1 fold and the “increase in fluorescence / protein expression in comparison with native promoter PemrR (control strain RIF01)” value worked out at 1.5 fold.

B2: Pvtac: engineered hybrid phenolic-inducible promoter, PemrR with spacer region of Ptac, SEQ ID NO:53 (nucleic acid)
DNA: GAATCATTTTTCTAAAACAATACATTTGACAATTAATCATCGGCTCGTATAATGATCGGCTGAAATTAATGAGGTCATACCCAAAT
modifications: expressed or natural sequence
For B2, the “improved gene expression in comparison with PemrR” value came to 10.4 fold, the “fold change in comparison with PemrR” value was 7.1 fold, the “improvement of expression levels” value was 9.5 fold and the “increase in fluorescence / protein expression in comparison with native promoter PemrR (control strain RIF01)” value was found to be 4.6 fold.

B3: Pvtrc: engineered hybrid phenolic-inducible promoter, PemrR with spacer region of Ptrc, SEQ ID NO:54 (nucleic acid)
DNA: GAATCATTTTTCTAAAACAATACATTTGACAATTAATCATCCGGCTCGTATAATGATCGGCTGAAATTAATGAGGTCATACCCAAAT
modifications: expressed or natural sequence
Take B3: the “improved gene expression in comparison with PemrR” value amounted to 8.5 fold, the “fold change in comparison with PemrR” value worked out at 6.4 fold, the “improvement of expression levels” value came out at 6.8 fold and the “increase in fluorescence / protein expression in comparison with native promoter PemrR (control strain RIF01)” value was found to be 3.0 fold.
